Source: paper PMC10397247
Each block holds one binder with its values, some of them ahead of it.

What was measured:
Assay in all cases: two-hybrid library CCmax;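 further: natural log of median RNA to DNA barcode read ratio; higher means stronger binding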
[1] = biological target: T1, 4H2600-AA; settings: mean of both orientations
T1 chain: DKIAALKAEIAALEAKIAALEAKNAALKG

[2] = biological target: T2, 4H465-AA; settings: mean of both orientations
T2 chain: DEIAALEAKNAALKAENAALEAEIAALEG

[3] = biological target: T3, 4H535-AA; settings: mean of both orientations
T3 chain: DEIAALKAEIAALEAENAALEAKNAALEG

[4] = biological target: T4, 4H2898-AA; settings: mean of both orientations
T4 chain: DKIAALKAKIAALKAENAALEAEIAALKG

[5] = biological target: T5, 4H3705-AA; settings: mean of both orientations
T5 chain: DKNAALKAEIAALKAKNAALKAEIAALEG

[6] = biological target: T6, 4H3365-AA; settings: mean of both orientations
T6 chain: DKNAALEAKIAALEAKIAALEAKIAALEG

[7] = biological target: T7, 4H2750-AA; settings: mean of both orientations
T7 chain: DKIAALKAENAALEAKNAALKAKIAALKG

[8] = biological target: T8, 4H140-AA; settings: mean of both orientations
T8 chain: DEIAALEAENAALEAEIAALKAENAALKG

[9] = biological target: T9, P6-AA-12HAA-T
T9 chain: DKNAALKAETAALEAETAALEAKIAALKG

[10] = biological target: T10, P5-AA-1HAA-H; settings: mean of both orientations
T10 chain: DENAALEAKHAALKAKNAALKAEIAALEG

[11] = biological target: T11, P5-AA-1HGe-D; settings: mean of both orientations
T11 chain: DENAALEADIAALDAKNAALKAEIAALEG

[12] = biological target: T12, P5-AA-1HGe-A; settings: mean of both orientations
T12 chain: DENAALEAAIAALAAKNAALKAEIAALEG

[13] = biological target: T13, APC7099-AA; settings: mean of both orientations
T13 chain: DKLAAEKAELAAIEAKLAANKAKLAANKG

[14] = biological target: T14, APC6108-AA; settings: mean of both orientations
T14 chain: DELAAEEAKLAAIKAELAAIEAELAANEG

[15] = biological target: T15, 4H807-AA; settings: mean of both orientations
T15 chain: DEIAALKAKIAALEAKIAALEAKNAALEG

[16] = biological target: T16, APC1015-AA
T16 chain: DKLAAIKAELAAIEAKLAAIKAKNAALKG

[17] = biological target: T17, APC4011-AA; settings: mean of both orientations
T17 chain: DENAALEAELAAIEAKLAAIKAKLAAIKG

[18] = biological target: T18, 4H3029-AA; settings: mean of both orientations
T18 chain: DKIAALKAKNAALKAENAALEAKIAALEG

[19] = biological target: T19, 4H2948-AA; settings: mean of both orientations
T19 chain: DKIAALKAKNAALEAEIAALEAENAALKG

[20] = biological target: T20, 4H3446-AA; settings: mean of both orientations
T20 chain: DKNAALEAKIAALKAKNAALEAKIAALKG

[21] = biological target: T21, 4H478-AA; settings: mean of both orientations
T21 chain: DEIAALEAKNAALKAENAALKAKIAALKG

[22] = biological target: T22, 4H3121-AA; settings: mean of both orientations
T22 chain: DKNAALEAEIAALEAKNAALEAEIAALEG

[23] = biological target: T23, 4H1854-AA; settings: mean of both orientations
T23 chain: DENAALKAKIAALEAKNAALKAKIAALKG

[24] = biological target: T24, 4H146-AA; settings: mean of both orientations
T24 chain: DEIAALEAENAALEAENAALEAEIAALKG

[25] = biological target: T25, 4H2991-AA; settings: mean of both orientations
T25 chain: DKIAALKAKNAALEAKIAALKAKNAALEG

[26] = biological target: T26, 4H2513-AA; settings: mean of both orientations
T26 chain: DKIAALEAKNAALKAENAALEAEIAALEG

[27] = biological target: T27, 4H1710-AA; settings: mean of both orientations
T27 chain: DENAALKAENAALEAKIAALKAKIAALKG

[28] = biological target: T28, 4H1350-AA
T28 chain: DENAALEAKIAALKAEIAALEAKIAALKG

[29] = biological target: T29, 4H2512-AA; settings: mean of both orientations
T29 chain: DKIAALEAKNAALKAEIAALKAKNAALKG

[30] = biological target: T30, 4H2187-AA; settings: mean of both orientations
T30 chain: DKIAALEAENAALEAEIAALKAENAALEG

[31] = biological target: T31, 4H87-AA; settings: mean of both orientations
T31 chain: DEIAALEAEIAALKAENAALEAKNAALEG

[32] = biological target: T32, 4H369-AA; settings: mean of both orientations
T32 chain: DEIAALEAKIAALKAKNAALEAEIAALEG

[33] = biological target: T33, 4H3134-AA; settings: mean of both orientations
T33 chain: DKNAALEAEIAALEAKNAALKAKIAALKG

[34] = biological target: T34, 4H1985-AA; settings: mean of both orientations
T34 chain: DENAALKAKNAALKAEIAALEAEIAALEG

[35] = biological target: T35, 4H1405-AA; settings: mean of both orientations
T35 chain: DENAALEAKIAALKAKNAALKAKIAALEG

[36] = biological target: T36, 4H775-AA; settings: mean of both orientations
T36 chain: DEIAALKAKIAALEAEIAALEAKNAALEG

[37] = biological target: T37, O4-AA; settings: mean of both orientations
T37 chain: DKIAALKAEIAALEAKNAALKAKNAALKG

[38] = biological target: T38, 4H324-AA; settings: mean of both orientations
T38 chain: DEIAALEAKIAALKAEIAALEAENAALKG

[39] = biological target: T39, P6-AA-1HGe-M
T39 chain: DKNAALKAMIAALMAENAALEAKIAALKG

[40] = biological target: T40, P6-AA-1HAA-E; settings: mean of both orientations
T40 chain: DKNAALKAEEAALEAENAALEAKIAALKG

[41] = biological target: T41, P6-AA-1HGe-D; settings: mean of both orientations
T41 chain: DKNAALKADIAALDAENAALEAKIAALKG

[42] = biological target: T42, P6-AA-1HAA-Y; settings: mean of both orientations
T42 chain: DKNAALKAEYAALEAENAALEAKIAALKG

interaction score [1]: 0.518 | interaction score [2]: -0.726 | interaction score [3]: -1.14 | interaction score [4]: -1.42 | interaction score [5]: -1.52 | interaction score [6]: -1.46 | interaction score [7]: -1.22 | interaction score [8]: -1.43
B1: 4H1257-AA (peptide)
chain: DENAALEAENAALKAKIAALKAEIAALEG

interaction score [9]: 1.61
B2: 4H1385-AA (peptide)
chain: DENAALEAKIAALKAKIAALKAEIAALEG

interaction score [10]: 2.02 | interaction score [11]: 1.14 | interaction score [12]: 2.06
B3: 4H3606-AA (peptide)
chain: DKNAALKAEIAALEAENAALEAKIAALKG

interaction score [13]: -1.48 | interaction score [14]: -2.14 | interaction score [15]: -1.58 | interaction score [16]: -1.28 | interaction score [17]: -1.65
B4: 4H1845-AA (peptide)
chain: DENAALKAKIAALEAKNAALEAKIAALEG

interaction score [18]: -1.16 | interaction score [19]: -0.884 | interaction score [20]: -1.11 | interaction score [21]: -1.56 | interaction score [22]: -1.6 | interaction score [23]: -1.4 | interaction score [24]: -1.5 | interaction score [25]: -0.846
B5: 4H1064-AA (peptide)
chain: DENAALEAEIAALEAKIAALEAKNAALKG

interaction score [26]: -1.31 | interaction score [27]: 0.556 | interaction score [28]: 2.09 | interaction score [29]: -0.538 | interaction score [30]: -1.97 | interaction score [31]: -0.16 | interaction score [32]: 0.227 | interaction score [33]: 0.186 | interaction score [34]: 0.316 | interaction score [35]: -0.893 | interaction score [36]: 1.63
B6: 4H1350-AA (peptide)
chain: DENAALEAKIAALKAEIAALEAKIAALKG

interaction score [37]: -0.185
B7: 4H171-AA (peptide)
chain: DEIAALEAENAALEAKIAALKAENAALEG

interaction score [38]: -1.59
B8: 4H249-AA (peptide)
chain: DEIAALEAENAALKAKNAALKAEIAALEG

interaction score [39]: 2.24 | interaction score [40]: 2.01 | interaction score [41]: 1.88 | interaction score [42]: 2.37
B9: 4H1401-AA (peptide)
chain: DENAALEAKIAALKAKNAALKAEIAALEG
